Measurements: article PMC3145889 (Oncogene, 2011)
Ends that are not written are not given here.

T1: His-HMG20b (human, UniProt Q9P0W2 1-317)
T1 sequence: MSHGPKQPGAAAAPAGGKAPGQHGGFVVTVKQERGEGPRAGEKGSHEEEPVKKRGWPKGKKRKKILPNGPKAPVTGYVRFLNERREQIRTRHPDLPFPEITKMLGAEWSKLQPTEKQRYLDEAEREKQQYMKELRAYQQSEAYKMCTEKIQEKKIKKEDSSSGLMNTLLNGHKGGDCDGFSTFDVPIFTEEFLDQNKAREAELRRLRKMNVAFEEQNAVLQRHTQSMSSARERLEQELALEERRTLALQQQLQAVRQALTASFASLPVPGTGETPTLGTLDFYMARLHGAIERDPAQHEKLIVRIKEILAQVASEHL


Key:
[1] = molecular target: HMG20b (human (endogenous in 293T and HeLa)) (UniProt Q9P0W2); assay: co-IP
His-HMG20b = molecular target: T1, His-HMG20b; assay: pull-down

fraction of the protein present in the complex [1] | binding result (His-HMG20b) | Molecule
< 5% | – | BRCA2, P51587 1-3418
– | binds | YSVIENSALAFYTSCSRKTSVSQTSLLEAKKWLRE (also: biotin label, position not given here) [Biotin-labelled BRC5 peptide (BRCA2 1661-1695)]
